Measurements: IntAct's records for PubMed 20581824

Key:
[1] = target: nr1d1_human NR1D1 (UniProt P20393)
[2] = target: nr1d1_human NR1D1 (UniProt P20393); remark: listed apart in the source

Sequence of nr1d1_human NR1D1 (P20393 whole entry): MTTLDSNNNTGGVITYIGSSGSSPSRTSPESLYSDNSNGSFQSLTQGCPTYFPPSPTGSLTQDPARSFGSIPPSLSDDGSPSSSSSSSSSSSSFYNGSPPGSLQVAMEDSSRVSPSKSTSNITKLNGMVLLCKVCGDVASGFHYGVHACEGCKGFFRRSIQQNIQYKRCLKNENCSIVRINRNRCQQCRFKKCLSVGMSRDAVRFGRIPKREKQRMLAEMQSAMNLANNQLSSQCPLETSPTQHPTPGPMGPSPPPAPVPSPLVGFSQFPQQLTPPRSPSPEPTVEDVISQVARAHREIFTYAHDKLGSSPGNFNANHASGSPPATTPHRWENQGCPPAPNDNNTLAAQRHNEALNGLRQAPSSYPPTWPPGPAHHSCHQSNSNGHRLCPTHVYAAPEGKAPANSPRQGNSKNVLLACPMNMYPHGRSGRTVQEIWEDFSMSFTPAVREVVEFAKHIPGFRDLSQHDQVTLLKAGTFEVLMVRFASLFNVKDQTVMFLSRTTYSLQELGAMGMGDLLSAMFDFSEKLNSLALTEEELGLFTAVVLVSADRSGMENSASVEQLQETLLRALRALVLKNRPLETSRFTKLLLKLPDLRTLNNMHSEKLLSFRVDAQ

Substance	effect of a mutation on the interaction [1]	effect of a mutation on the interaction [2]
Nuclear receptor corepressor 1 (Homo sapiens), O75376 L2048A		decreasing interaction
Nuclear receptor corepressor 1 (Homo sapiens), O75376 I2058A;I2059A	disrupting interaction	
Nuclear receptor corepressor 1 (Homo sapiens), O75376 H2054A		disrupting interaction
Nuclear receptor corepressor 1 (Homo sapiens), O75376 I2058A	disrupting interaction	
Nuclear receptor corepressor 1 (Homo sapiens), O75376 I2055A	disrupting interaction	

Now from value to substance:

effect of a mutation on the interaction [1]	effect of a mutation on the interaction [2]	Substance
disrupting interaction		Nuclear receptor corepressor 1 (Homo sapiens), O75376 I2059A
	decreasing interaction	Nuclear receptor corepressor 1 (Homo sapiens), O75376 L2051A
	decreasing interaction	Nuclear receptor corepressor 1 (Homo sapiens), O75376 H2046A
